Results taken from PMC8704557 (International Journal of Molecular Sciences, 2021).
One block for each molecule: values may come before it.

Key:
[1] = molecular target: T1, Dye-LDH complex (recombinant dye-linked L-lactate dehydrogenase, STK16540 (α) / STK16550 (β), α3β3) (Sulfurisphaera tokodaii, UniProt Q970D7); assay: flavin extracted from purified enzyme, identified by HPLC; assay type: binding; conditions: prosthetic group co-purified with the complex
T1 construct: gene ST1655; gene cluster stk_16540-16570 expressed in Sulfolobus acidocaldarius SK1; N-terminal His-tag on STK16540 kept; purified α3β3 heterohexamer, about 253 kDa (subunits 30 and 40 kDa by SDS-PAGE; STK16550 43 kDa); stk_16560 and stk_16570 products not in the purified complex; with Dye-linked L-lactate dehydrogenase, alpha subunit (hypothetical protein with Fe-S cluster motif)
T1 sequence (Q970D7 1-383): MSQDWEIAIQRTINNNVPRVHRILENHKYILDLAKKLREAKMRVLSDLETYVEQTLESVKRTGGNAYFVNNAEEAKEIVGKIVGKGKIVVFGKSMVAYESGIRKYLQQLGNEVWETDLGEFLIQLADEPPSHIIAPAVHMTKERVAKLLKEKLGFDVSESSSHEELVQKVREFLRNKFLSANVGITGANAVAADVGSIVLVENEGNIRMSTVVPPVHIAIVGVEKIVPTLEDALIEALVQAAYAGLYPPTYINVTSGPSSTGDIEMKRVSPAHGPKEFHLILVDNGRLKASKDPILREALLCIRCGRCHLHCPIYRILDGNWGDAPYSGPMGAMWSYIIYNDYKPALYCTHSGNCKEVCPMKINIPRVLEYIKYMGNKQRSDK
T1 sequence (Q970D8 1-287 partner): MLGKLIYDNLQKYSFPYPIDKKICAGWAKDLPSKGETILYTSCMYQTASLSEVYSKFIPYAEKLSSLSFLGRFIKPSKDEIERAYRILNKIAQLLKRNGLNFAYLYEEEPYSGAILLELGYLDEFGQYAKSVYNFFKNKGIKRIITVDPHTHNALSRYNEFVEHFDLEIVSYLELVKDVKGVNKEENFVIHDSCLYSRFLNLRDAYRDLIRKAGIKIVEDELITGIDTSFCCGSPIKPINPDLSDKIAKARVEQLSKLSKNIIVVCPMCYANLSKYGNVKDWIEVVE

[2] = molecular target: STK16540 protein (product of stk_16540), alpha subunit of the Dye-LDH complex (Sulfurisphaera tokodaii); assay: native gel or EMSA; native gradient PAGE (Novex NativePAGE Bis-Tris gel system) of the purified enzyme; single protein of approximately 253 kDa; subunit masses from SDS-PAGE
[3] = substrate: O=C1C(Cl)=CC(=Nc2ccc(O)cc2)C=C1Cl; assay: purified protein; assay type: biochemical, Sulfurisphaera tokodaii; conditions: electron acceptor, standard assay 40 mM L-lactate, 200 mM PIPES-NaOH pH 6.5, 60 °C, free enzyme
[4] = substrate: C[C@H](O)C(=O)O; assay: purified protein; conditions: electron donor, standard assay 0.2 mM DCIP, 200 mM PIPES-NaOH pH 6.5, 60 °C, free enzyme

Molecule: Cc1cc2nc3c(=O)[nH]c(=O)nc-3n(C[C@H](O)[C@H](O)[C@H](O)COP(=O)(O)O)c2cc1C [FMN]
- flavin extracted from purified enzyme, identified by HPLC [1]: the flavin compound in the enzyme extract was identified as FMN

- stoichiometry N (β per α (3:3)) [2]: 1
Molecule: Dye-LDH homolog (product of stk_16550), beta subunit of the Dye-LDH complex (enzyme)

B1: Dye-LDH complex (recombinant dye-linked L-lactate dehydrogenase, STK16540 (α) / STK16550 (β), α3β3) (Sulfurisphaera tokodaii str. 7) (protein)
chain: MSQDWEIAIQRTINNNVPRVHRILENHKYILDLAKKLREAKMRVLSDLETYVEQTLESVKRTGGNAYFVNNAEEAKEIVGKIVGKGKIVVFGKSMVAYESGIRKYLQQLGNEVWETDLGEFLIQLADEPPSHIIAPAVHMTKERVAKLLKEKLGFDVSESSSHEELVQKVREFLRNKFLSANVGITGANAVAADVGSIVLVENEGNIRMSTVVPPVHIAIVGVEKIVPTLEDALIEALVQAAYAGLYPPTYINVTSGPSSTGDIEMKRVSPAHGPKEFHLILVDNGRLKASKDPILREALLCIRCGRCHLHCPIYRILDGNWGDAPYSGPMGAMWSYIIYNDYKPALYCTHSGNCKEVCPMKINIPRVLEYIKYMGNKQRSDK
notes: gene cluster stk_16540-16570 expressed in Sulfolobus acidocaldarius SK1; N-terminal His-tag on STK16540 kept; purified α3β3 heterohexamer, about 253 kDa (subunits 30 and 40 kDa by SDS-PAGE; STK16550 43 kDa); stk_16560 and stk_16570 products not in the purified complex; with Dye-linked L-lactate dehydrogenase, alpha subunit (hypothetical protein with Fe-S cluster motif)
- Km [3]: 200 µM
- Km [4]: 199 µM
